Test results: patent US6855515B1, “Autoantigenic fragments, methods and assays” (Merck & Co., Inc., priority 1998, dated 2005)

B1: SRP-72: autoantigen (protein)
chain: ASGGSGGVSVPALWSEVNRYGQNGDFTRALKTVNKILQINKDDVTALHCKVVCLIQNGSFKEALNVINTHTKVLANNSLSFEKAYCEYRLNRIENALKTIESANQQTDKLKELYGQVLYRLERYDECLAVYRDLVRNSQDDYDEERKTNLSAVVAAQSNWEKVVPENLGLQEGTHELCYNTACALIGQGQLNQAMKILQKAEDLCRRSLSEDTDGTEEDPQAELAIIHGQMAYILQLQGRTEEALQLYNQIIKLKPTDVGLLAVIANNIITINKDQNVFDSKKKVKLTNAEGVEFKLSKKQLQAIEFNKALLAMYTNQAEQCRKISASLQSQSPEHLLPVLIQAAQLCREKQHTKAIELLQEFSDQHPENAAEIKLTMAQLKISQGNISKACLILRSIEELKHKPGMVSALVTMYSHEEDIDSAIEVFTQAIQWYQNHQPKSPAHLSLIREAANFKLKYGRKKEAISDLQQLWKQNPKDIHTLAQLISAYSLVDPEKAKALSKHLPSSDSMSLKVDVEALENSAGATYIRKKGGKVTGDSQPKEQGQGDLKKKKKKKKGKLPKNYDPKVTPDPERWLPMRERSYYRGRKKGKKKDQIGKGTQGATAGASSELDASKTVSSPPTSPRPGSAATVSASTSNIIPPRHQKPAGAPATKKKQQQKKKKGGKGGW
B2: PMS1: autoantigen (protein)
chain: MKQLPAATVRLLSSSQIITSVVSVVKELIENSLDAGATSVDVKLENYGFDKIEVRDNGEGIKAVDAPVMAMKYYTSKINSHEDLENLTTYGFRGEALGSICCIAEVLITTRTAADNFSTQYVLDGSGHILSQKPSHLGQGTTVTALRLFKNLPVRKQFYSTAKKCKDEIKKIQDLLMSFGILKPDLRIVFVHNKAVIWQKSRVSDHKMALMSVLGTAVMNNMESFQYHSEESQIYLSGFLPKCDADHSFTSLSTPERSFIFINSRPVHQKDILKLIRHHYNLKCLKESTRLYPVFFLKIDVPTADVDVNLTPDKSQVLLQNKESVLIALENLMTTCYGPLPSTNSYENNKTDVSAADIVLSKTAETDVLFNKVESSGKNYSNVDTSVIPFQNDMHNDESGKNTDDCLNHQISIGDFGYGHCSSEISNIDKNTKNAFQDISMSNVSWENSQTEYSKTCFISSVKHTQSENGNKDHIDESGENEEEAGLENSSEISADEWSRGNILKNSVGENIEPVKILVPEKSLPCKVSNNNYPIPEQMNLNEDSCNKKSNVIDNKSGKVTAYDLLSNRVIKKPMSASALFVQDHRPQFLIENPKTSLEDATLQIEELWKTLSEEEKLKYEEKATKDLERYNSQMKRAIEQESQMSLKDGRKKIKPTSAWNLAQKHKLKTSLSNQPKLDELLQSQIEKRRSQNIKMVQIPFSMKNLKINFKKQNKVDLEEKDEPCLIHNLRFPDAWLMTSKTEVMLLNPYRVEEALLFKRLLENHKLPAEPLEKPIMLTESLFNGSHYLDVLYKMTADDQRYSGSTYLSDPRLTANGFKIKLIPGVSITENYLEIEGMANCLPFYGVADLKEILNAILNRNAKEVYECRPRKVISYLEGEAVRLSRQLPMYLSKEDIQDIIYRMKHQFGNEIKECVHGRPFFHHLTYLPETT
B3: threonyl tRNA synthetase: autoantigen in autoimmune myositis (protein)
chain: MFEEKASSPSGKMGGEEKPIGAGEEKQKEGGKKKNKEGSGDGGRAELNPWPEYIYTRLEMYNILKAEHDSILAEKAEKDSKPIKVTLPDGKQVDAESWKTTPYQIACGISQGLADNTVIAKVNNVVWDLDRPLEEDCTLELLKFEDEEAQAVYWHSSAHIMGEAMERVYGGCLCYGPPIENGFYYDMYLEEGGVSSNDFSSLEALCKKIIKEKQAFERLEVKKETLLAMFKYNKFKCRILNEKVNTPTTTVYRCGPLIDLCRGPHVRHTGKIKALKIHKNSSTYWEGKADMETLQRIYGISFPDPKMLKEWEKFQEEAKNRDHRKIGRDQELYFFHELSPGSCFFLPKGAYIYNALIEFIRSEYRKRGFQEVVTPNIFNSRLWMTSGHWQHYSENMFSFEVEKELFALKPMNCPGHCLMFDHRPRSWRELPLRLADFGVLHRNELSGALTGLTRVRRFQQDDAHIFCAMEQIEDEIKGCLDFLRTVYSVFGFSFKLNLSTRPEKFLGDIEVWDQAEKQLENSLNEFGEKWELNSGDGAFYGPKIDIQIKDAIGRYHQCATIQLDFQLPIRFNLTYVSHDGDDKKRPVIVHRAILGSVERMIAILTENYGGKWPFWLSPRQVMVVPVGPTCDEYAQKVRQQFHDAKFMADIDLDPGCTLNKKIRNAQLAQYNFILVVGEKEKISGTVNIRTRDNKVHGERTISETIERLQQLKEFRSKQAEEEF
B4: glycyl tRNA synthetase: autoantigen in autoimmune myositis (protein)
chain: MDGAGAEEVLAPLRLAVRQQGDLVRKLKEDKAPQVDVDKAVAELKARKRVLEAKELALQPKDDIVDRAKMEDTLKRRFFYDQAFAIYGGVSGLYDFGPVGCALKNNIIQTWRQHFIQEEQILEIDCTMLTPEPVLKTSGHVDKFADFMVKDVKNGECFRADHLLKAHLQKLMSDKKCSVEKKSEMESVLAQLDNYGQQELADLFVNYNVKSPITGNDLSPPVSFNLMFKTFIGPGGNMPGYLRPETAQGIFLNFKRLLEFNQGKLPFAAAQIGNSFRNEISPRSGLIRVREFTMAEIEHFVDPSEKDHPKFQNVADLHLYLYSAKAQVSGQSARKMRLGDAVEQGVINNTVLGYFIGRIYLYLTKVGISPDKLRFRQHMENEMAHYACDCWDAESKTSYGWIEIVGCADRSCYDLSCHARATKVPLVAEKPLKEPKTVNVVQFEPSKGAIGKAYKKDAKLVMEYLAICDECYITEMEMLLNEKGEFTIETEGKTFQLTKDMINVKRFQKTLYVEEVVPNVIEPSFGLGRIMYTVFEHTFHVREGDEQRTFFSFPAVVAPFKCSVLPLSQNQEFMPFVKELSEALTRHGVSHKVDDSSGSIGRRYARTDEIGVAFGVTIDFDTVNKTPHTATLRDRDSMRQIRAEISELPSIVQDLANGNITWADVEARYPLFEGQETGKKETIEE
B5: Caspase-7: precursor of caspase-7 used as substrate for granzyme B (protein, UniProt P55210 2-303, looked up)
pro-form: ADDQGCIEEQGVEDSANEDSVDAKPDRSSFVPSLFSKKKKNVTMRSIKTTRDRVPTYQYNMNFEKLGKCIIINNKNFDKVTGMGVRNGTDKDAEALFKCFRSLGFDVIVYNDCSCAKMQDLLKKASEEDHTNAACFACILLSHGEENVIYGKDGVTPIKDLTAHFRGDRCKTLLEKPKLFFIQACRGTELDDGIQADSGPINDTDANPRYKIPVEADFLFAYSTVPGYYSWRSPGRGSWFVQALCSILEEHGKDLEIMQILTRVNDRVARHFESQSDDPHFHEKKQIPCVVSMLTKELYFSQ
modifications: pro-form
notes: precursor of caspase-7 used as substrate for granzyme B

Tests used:
Assay type in all cases: biochemical
granzyme B [1] = biological target: T1, granzyme B (Homo sapiens, UniProt P10144); assay: Susceptibility of autoantigens to cleavage by purified granzyme B (HeLa lysate immunoblot or immunoprecipitates); conditions: in vitro
T1 construct: Some of these preparations were used for the further purification of granzyme B (Tschopp, 1994); endogenous in cells; host or cells: YT cells (human NK cell line), cytoplasmic granules
T1 sequence (P10144 21-247): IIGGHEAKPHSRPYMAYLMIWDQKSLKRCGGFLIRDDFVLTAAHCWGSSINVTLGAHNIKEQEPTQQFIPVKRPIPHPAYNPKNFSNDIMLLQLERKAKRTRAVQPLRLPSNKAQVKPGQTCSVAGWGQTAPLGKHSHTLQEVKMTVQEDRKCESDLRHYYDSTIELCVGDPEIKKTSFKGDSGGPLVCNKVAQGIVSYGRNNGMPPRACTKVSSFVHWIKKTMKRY
Procedure: To determine whether susceptibility to direct cleavage by granzyme B was an isolated feature of PARP, NuMA and DNA-PKcs shown above, or whether it was a more general feature of autoantigens, a variety of well-defined autoantigens selected from across the spectrum of systemic autoimmune diseases were tested for susceptibility to cleavage by purified granzyume B. The efficiency of cleavage of the substrates by purified granzyme B was also noted (Table 3). Initially, a series of autoantibodies of well-defined specificity were used to immunoblot lysates of HeLa cells that had been incubated in vitro with or without granzyme B. Lysates were pre-treated with iodoacetamide (IAA) to prevent interference by endogenous caspase activity.
To perform these studies, HeLa cells were radiolabeled with [^35S] methionine/cysteine, and proteins were immunoprecipitated using human autoantibodies. Protein A-agarose beads containing washed precipitated proteins were resuspended in buffer supporting the activity of granzyme B, and incubated in the absence or presence of added purified granzyme B. Reaction products were visualized using SDS-PAGE and fluorography. To confirm the validity of this approach, several different autoantigens known to be cleaved by granzyme B, as well as several autoantigens and non-autoantigens that are not cleaved by granzyme B, were tested. Using autoantibodies that both immunoblot and immunprecipitate, the cleavage profiles obtained using granzyme B to cleave molecules in lysates (followed by detection with immunoblotting), and after immunoprecipitation (from [^35S]methionine-labeled HeLa lysate) were compared. Identical results were obtained using these 2 methods for cleaved autoantigens (topoisomerase-1, Mi-2, RNA polymerase II large subunit, Ku-70, PARP, and NOR-90), uncleaved autoantigens (Ku-80, Ro 60k), and control substrates (β-tubulin, vinculin). […] Of note, all these additional autoantigens (with the exception of RNA polymerase I) are targeted in autoimmune myositis. However, two other tRNA synthetases (threonyl tRNA synthetase and glycyl tRNA synthetase) that are also autoantigens in autoimmune myositis, were not cleaved using this approach.

caspase-8 = caspase-8 (Homo sapiens, UniProt Q14790); assay: Cleavage of substrates by purified caspase-8; conditions: 50 nM purified caspase-8; HeLa lysates treated with iodoacetamide, or radiolabeled IvTT substrate
caspase-8, sequence (Q14790 217-374 limits assumed, species assumed): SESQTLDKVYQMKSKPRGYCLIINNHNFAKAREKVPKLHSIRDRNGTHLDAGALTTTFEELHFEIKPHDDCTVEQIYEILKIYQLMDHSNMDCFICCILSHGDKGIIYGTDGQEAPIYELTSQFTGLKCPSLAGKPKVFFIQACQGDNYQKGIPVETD
caspase-8, sequence (Q14790 385-479 limits assumed, species assumed): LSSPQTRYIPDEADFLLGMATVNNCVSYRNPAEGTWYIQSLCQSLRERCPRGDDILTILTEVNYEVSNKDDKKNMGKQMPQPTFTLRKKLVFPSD
Procedure: To confirm that these substrates were not cleaved by group III caspases, the substrates were incubated with 50 nM purified caspase-8. Cleavage assays were performed in HeLa cell lysates in which endogenous caspases had first been irreversibly inactivated by 1 mM iodoacetamide (4° C. for 15 min), prior to addition of 5 mM DTT to facilitate exogenous caspase-8 activity. No cleavage of topoisomerase-1, Mi-2, U1-70 kDa, PARP, Ku-70, RNA polymerase II large subunit, SRP-72, NuMA or Ki-67 occurred. Caspase-8 was indeed active in these lysates, as evidenced by robust caspase-3 cleavage products of PARP and U1-70 kDa seen when the IAA ‘poisoning’ step was omitted. Radiolabeled PMS1 and PMS2 (generated by IvTT) were also not cleaved by purified caspase-8.

granzyme B [2] = biological target: T1, granzyme B; assay: In vitro cleavage of substrates by purified granzyme B, kcat/Km from densitometry; conditions: ratio of kcat/Km
Procedure: cDNAs for caspase-3, caspase-7, NuMA and PARP were used to drive the synthesis of [^35S]methionine-labeled proteins by coupled transcription/translation in rabbit reticulocyte lysates. For all purified substrates, cleavage reactions were performed in buffer consisting of 50 mM Hepes pH 7.4, 10% sucrose and 5 mM DTT in the presence of the granzyme B concentrations indicated in FIG. 1. After incubation at 37° C. for 15 min, reactions were terminated and samples were electrophoresed on 10% (DNA-PKcs, NuMA), 12% (PARP) or 15% (caspases 3 and 7) SDS-polyacrylamide gels. Radiolabeled proteins and their fragments were visualized by fluorography. Intact and cleaved DNA-PKcs were visualized by immunoblotting with monoclonal antibody 18-2 (Casciola-Rosen et al., 1995).
Catalytic constant (kcat/km) values were calculated essentially as described (Casciola-Rosen et al., 1996). Briefly, subsaturating substrate concentrations were used in each in vitro reaction, and product appearance was assumed to be a first order process. […] Several appropriate densitometry systems are available, e.g. PDI Discovery System, with Quantity One Software, Protein Databases, Inc., (Huntington Station, N.Y.). kcat/Km values were calculated by fitting the dose-response data to the first order rate equation: percent substrate cleavage=100*((1^-e-((kcat*[E]/Km)*time)). […]

Row | Molecule | susceptibility to cleavage by granzyme B (granzyme B [1]) | cleavage by caspase-8 (caspase-8) | efficiency of granzyme B cleavage relative to caspase-3 precursor (granzyme B [2])
1 | B1 | efficiently cleaved | No cleavage | –
2 | B2 | efficiently cleaved | not cleaved | –
3 | B3 | not cleaved | – | –
4 | B4 | not cleaved | – | –
5 | B5 | – | – | approximately 6 fold
